How the values were obtained:
[1] = biological target: SHP2-C SH2; assay: SH2 binding enrichment of the phosphorylated peptide, bacterial display (enrichment ratio); higher = better substrate or ligand; peptides without Tyr show the background
[2] = biological target: c-Src SH2; assay: as above
[3] = biological target: Grb2 SH2 (UniProt P62993); assay: as above
[4] = biological target: FGFR3 (UniProt P22607); assay: phosphorylation enrichment, bacterial display (enrichment ratio); higher = better substrate or ligand; peptides without Tyr show the background
[5] = biological target: EPHB1 (UniProt P54762); assay: as above
[6] = test system: Fer (mouse); assay: as above
[7] = biological target: Jak2 (UniProt O60674); assay: as above
[8] = biological target: Fes (UniProt P07332); assay: as above
[9] = biological target: EPHB2 (UniProt P29323); assay: as above
[10] = biological target: Hck (UniProt P08631); assay: as above
[11] = biological target: FGFR1 (UniProt P11362); assay: as above
[12] = test system: c-Abl (mouse); assay: as above
[13] = biological target: Fyn (UniProt P06241); assay: as above
[14] = test system: c-Src; assay: as above
[15] = biological target: MERTK (UniProt Q12866); assay: as above
[16] = test system: AncSZ; assay: as above
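Wherever SH2 binding enrichment of the phosphorylated peptide, bacterial display is given: peptide library displayed on the E. coli surface as eCPX fusions, selected cells deep-sequenced, score is each peptide's frequency after selection divided by its frequency in the input.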
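Wherever phosphorylation enrichment, bacterial display is given: 11-residue human phosphosite peptides and single-mutation variants displayed on the E. coli surface, counted by deep sequencing, each peptide's frequency after selection divided by its frequency in the unselected input library; frequency after pTyr selection over input frequency; kinase dosed for 20-30% of maximal phosphorylation in three min.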

EPHB2, sequence (P29323 whole entry, looked up): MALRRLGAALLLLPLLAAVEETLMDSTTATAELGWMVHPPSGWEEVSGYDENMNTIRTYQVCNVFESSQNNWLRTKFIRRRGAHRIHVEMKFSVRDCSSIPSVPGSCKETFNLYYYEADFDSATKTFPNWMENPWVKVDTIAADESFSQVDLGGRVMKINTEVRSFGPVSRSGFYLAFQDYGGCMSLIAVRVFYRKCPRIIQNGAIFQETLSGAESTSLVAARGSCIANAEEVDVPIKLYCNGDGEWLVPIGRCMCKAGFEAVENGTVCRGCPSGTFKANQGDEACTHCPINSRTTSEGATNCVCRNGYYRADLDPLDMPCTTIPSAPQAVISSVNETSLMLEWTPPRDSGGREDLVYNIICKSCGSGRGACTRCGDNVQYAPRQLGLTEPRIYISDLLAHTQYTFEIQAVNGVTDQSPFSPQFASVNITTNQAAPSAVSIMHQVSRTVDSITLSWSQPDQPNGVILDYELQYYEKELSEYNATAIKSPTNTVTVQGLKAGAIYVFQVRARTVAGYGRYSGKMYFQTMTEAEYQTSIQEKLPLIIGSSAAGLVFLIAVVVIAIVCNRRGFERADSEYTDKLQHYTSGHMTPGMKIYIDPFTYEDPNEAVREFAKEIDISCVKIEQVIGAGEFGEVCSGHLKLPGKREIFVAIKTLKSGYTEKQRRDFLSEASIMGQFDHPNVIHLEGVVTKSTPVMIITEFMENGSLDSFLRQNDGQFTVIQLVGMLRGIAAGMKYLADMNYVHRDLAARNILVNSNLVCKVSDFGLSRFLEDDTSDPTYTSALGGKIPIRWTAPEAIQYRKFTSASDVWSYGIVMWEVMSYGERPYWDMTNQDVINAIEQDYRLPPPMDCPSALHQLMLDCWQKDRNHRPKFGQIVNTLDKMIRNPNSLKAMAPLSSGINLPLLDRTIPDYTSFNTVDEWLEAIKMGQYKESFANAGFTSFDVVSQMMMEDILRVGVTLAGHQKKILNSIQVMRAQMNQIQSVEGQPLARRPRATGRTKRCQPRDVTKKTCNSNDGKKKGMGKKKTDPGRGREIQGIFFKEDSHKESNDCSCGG
Fes, sequence (P07332 whole entry, looked up): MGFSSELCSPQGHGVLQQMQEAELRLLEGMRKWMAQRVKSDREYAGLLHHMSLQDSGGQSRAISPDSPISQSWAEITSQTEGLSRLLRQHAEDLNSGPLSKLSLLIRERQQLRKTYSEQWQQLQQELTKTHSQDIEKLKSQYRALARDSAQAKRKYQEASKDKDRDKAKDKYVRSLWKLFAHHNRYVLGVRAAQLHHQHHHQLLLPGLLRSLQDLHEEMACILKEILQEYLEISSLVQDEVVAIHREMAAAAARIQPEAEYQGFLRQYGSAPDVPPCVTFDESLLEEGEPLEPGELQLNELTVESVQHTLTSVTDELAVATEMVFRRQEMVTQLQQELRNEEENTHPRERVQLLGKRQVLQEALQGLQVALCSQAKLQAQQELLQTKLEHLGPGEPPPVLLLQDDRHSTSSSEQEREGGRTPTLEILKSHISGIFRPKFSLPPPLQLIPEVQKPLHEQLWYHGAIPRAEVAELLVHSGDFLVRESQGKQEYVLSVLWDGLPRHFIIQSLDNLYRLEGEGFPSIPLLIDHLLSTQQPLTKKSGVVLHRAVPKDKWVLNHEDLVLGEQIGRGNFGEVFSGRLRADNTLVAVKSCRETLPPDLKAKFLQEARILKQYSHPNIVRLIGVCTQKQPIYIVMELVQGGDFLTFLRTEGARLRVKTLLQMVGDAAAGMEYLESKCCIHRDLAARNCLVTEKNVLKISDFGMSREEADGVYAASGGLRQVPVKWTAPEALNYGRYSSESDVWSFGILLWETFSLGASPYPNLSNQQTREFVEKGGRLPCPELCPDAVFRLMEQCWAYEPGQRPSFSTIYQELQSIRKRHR
Fyn, sequence (P06241 whole entry, looked up): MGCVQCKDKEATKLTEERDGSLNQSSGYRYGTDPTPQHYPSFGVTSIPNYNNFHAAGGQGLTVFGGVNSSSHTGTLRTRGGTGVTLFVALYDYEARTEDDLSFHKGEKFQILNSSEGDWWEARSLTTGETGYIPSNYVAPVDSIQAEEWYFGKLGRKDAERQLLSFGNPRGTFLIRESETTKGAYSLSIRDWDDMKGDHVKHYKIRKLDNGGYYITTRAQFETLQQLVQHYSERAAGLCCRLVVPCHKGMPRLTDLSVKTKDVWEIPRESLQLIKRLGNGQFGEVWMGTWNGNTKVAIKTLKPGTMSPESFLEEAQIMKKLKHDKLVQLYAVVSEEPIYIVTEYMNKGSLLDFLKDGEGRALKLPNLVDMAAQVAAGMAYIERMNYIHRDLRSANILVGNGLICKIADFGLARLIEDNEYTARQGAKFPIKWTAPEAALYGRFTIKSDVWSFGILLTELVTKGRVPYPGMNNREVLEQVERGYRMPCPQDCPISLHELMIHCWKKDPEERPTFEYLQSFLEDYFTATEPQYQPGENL
FGFR1, sequence (P11362 whole entry, looked up): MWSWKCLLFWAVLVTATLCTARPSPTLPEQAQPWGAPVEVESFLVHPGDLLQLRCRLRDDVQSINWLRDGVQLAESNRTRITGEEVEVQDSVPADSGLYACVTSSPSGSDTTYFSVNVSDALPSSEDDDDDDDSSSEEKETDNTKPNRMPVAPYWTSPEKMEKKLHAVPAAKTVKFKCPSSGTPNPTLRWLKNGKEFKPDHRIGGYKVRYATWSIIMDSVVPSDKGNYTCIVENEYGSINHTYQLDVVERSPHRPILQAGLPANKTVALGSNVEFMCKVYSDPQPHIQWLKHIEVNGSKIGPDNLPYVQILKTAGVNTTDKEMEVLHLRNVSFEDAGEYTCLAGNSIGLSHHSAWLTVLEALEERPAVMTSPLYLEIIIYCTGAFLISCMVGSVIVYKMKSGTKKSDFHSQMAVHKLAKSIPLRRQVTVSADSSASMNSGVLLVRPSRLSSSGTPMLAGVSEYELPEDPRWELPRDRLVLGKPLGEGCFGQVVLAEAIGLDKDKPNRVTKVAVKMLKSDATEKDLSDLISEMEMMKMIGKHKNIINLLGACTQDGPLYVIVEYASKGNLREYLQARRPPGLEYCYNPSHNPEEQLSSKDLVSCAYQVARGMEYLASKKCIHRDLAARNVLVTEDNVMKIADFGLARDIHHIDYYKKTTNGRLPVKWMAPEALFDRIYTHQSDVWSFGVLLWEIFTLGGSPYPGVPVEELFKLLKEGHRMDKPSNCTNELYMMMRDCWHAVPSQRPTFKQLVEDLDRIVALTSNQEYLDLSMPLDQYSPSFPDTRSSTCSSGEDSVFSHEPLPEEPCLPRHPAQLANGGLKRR
Hck, sequence (P08631 whole entry, looked up): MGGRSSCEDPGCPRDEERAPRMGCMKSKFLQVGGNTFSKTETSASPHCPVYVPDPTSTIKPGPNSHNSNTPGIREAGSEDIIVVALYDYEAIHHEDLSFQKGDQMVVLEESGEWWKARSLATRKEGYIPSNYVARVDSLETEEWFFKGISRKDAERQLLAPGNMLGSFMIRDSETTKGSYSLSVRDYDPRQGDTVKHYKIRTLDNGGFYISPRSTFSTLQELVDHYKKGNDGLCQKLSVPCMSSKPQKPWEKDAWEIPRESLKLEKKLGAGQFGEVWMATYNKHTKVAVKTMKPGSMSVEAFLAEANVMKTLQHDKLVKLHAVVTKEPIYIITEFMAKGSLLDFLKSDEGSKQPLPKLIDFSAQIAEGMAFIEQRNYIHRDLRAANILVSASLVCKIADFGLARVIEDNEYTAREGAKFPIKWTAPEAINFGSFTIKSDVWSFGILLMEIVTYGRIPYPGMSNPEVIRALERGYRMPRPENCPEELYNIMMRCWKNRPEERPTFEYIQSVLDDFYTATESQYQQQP
FGFR3, sequence (P22607 whole entry, looked up): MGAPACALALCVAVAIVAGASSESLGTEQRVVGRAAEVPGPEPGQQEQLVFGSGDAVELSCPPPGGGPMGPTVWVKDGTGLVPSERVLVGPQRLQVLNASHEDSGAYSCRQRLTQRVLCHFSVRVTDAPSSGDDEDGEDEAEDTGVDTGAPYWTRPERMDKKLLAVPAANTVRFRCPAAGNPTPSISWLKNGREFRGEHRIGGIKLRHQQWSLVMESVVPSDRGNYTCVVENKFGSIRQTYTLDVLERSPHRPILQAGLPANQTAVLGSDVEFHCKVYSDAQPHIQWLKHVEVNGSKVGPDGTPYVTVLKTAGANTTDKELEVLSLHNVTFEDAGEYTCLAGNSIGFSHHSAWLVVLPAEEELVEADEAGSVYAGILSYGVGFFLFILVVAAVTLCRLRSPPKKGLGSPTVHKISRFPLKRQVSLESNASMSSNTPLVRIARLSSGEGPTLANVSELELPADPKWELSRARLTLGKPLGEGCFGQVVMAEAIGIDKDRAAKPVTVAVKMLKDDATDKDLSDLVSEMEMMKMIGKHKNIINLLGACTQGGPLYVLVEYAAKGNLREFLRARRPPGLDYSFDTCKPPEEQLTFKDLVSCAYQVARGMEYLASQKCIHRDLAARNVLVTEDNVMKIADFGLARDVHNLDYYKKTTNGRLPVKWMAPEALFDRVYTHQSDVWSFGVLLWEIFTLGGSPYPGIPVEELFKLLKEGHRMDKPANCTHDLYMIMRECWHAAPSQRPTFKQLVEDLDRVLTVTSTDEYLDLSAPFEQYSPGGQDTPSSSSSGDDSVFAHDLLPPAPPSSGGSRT
Grb2 SH2, sequence (P62993 whole entry, looked up): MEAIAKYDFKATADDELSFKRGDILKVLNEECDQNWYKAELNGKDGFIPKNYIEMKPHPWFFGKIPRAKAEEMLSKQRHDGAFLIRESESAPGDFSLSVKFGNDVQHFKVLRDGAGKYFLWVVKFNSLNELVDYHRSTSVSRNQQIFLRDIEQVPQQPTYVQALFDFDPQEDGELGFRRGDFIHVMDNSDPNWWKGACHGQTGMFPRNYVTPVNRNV

Sequence | SH2 binding enrichment [1] | SH2 binding enrichment [2] | SH2 binding enrichment [3] | phosphorylation enrichment [4] | phosphorylation enrichment [5] | phosphorylation enrichment [6] | phosphorylation enrichment [7] | phosphorylation enrichment [8] | phosphorylation enrichment [9] | phosphorylation enrichment [10] | phosphorylation enrichment [11] | phosphorylation enrichment [12] | phosphorylation enrichment [13] | phosphorylation enrichment [14] | phosphorylation enrichment [15] | phosphorylation enrichment [16]
QDIMAYRSREV [BCL6_Y157_G159S] | 0.955 | 0.42 | 0.699 | 0.664 | 0.456 | 0.196 | 0.759 | 0.746 | 0.343 | 0.314 | 0.285 | 0.745 | 0.323 | 0.513 | 0.398 | 0.569
QEGPEYWDGET [HLA-A_Y83_Q86G] | 0.662 | 0.476 | 0.957 | 1.25 | 0.739 | 0.788 | 1.67 | 1.71 | 0.786 | 0.712 | 0.839 | 0.964 | 0.712 | 0.554 | 0.627 | 1.73
QEGPEYWDLET [HLA-A_Y83_Q86L] | 0.583 | 0.507 | 0.775 | 3.3 | 1.59 | 0.748 | 2.02 | 2.29 | 1.18 | 0.978 | 3.97 | 1.56 | 0.846 | 0.998 | 0.742 | 2.76
QELRRYLESGV [MICA_Y194_K196E] | 0.596 | 0.397 | 0.729 | 0.662 | 0.749 | 0.486 | 1.16 | 0.812 | 1.54 | 0.489 | 0.62 | 0.616 | 0.772 | 0.465 | 0.49 | 0.597
QFQLKYSETPF [SIX6OS1_Y129_YF] | 1.37 | 0.625 | 1.01 | 1.11 | 0.957 | 0.789 | 2.17 | 1.84 | 1.12 | 0.855 | 0.982 | 1.39 | 0.811 | 0.812 | 1.24 | 1.7
QGCGIYKDFFR [PLA2G2D_Y82_S80G_YF] | 1.38 | 0.753 | 1.03 | 0.885 | 0.548 | 0.76 | 1.17 | 1.49 | 0.852 | 3.89 | 0.7 | 1.26 | 5.88 | 6.23 | 0.534 | 1.08
QGQHWYSSSDK [CASP10_Y9] | 0.829 | 1.21 | 0.905 | 0.6 | 0.766 | 0.579 | 0.645 | 1.17 | 0.596 | 0.754 | 0.665 | 0.697 | 0.671 | 0.552 | 0.573 | 0.826
QGQHWYSSSDT [CASP10_Y9_K14T] | 0.83 | 1.53 | 0.827 | 0.901 | 0.859 | 0.755 | 1.99 | 1.39 | 0.929 | 0.573 | 0.657 | 1.06 | 0.672 | 0.982 | 0.811 | 1.09
QKFMAYPSQGG [HLCS_Y236_L237P] | 0.654 | 0.477 | 0.941 | 0.484 | 0.388 | 0.654 | 1.2 | 0.886 | 0.525 | 0.537 | 0.512 | 1.12 | 0.388 | 0.779 | 0.613 | 0.625
QLDQHYLLVPE [DDX49_Y223_R222H] | 0.436 | 0.604 | 0.815 | 2.09 | 1.21 | 0.643 | 1.14 | 1.1 | 1.09 | 0.893 | 1.6 | 0.642 | 0.955 | 0.654 | 0.825 | 1.16
QMEKICTQQIQ [CCNB1IP1_Y125_Y125C] | 0.558 | 0.486 | 0.834 | 0.948 | 0.707 | 0.537 | 1.24 | 1.64 | 0.647 | 0.409 | 1 | 0.986 | 0.486 | 0.573 | 0.461 | 1.36
QMVDMYASSYM [AVPR2_Y124_G122D] | 0.602 | 1.33 | 0.742 | 0.815 | 0.558 | 0.631 | 0.905 | 1.43 | 0.571 | 1.58 | 0.579 | 0.891 | 0.876 | 1.29 | 0.842 | 1.22
QNTADYYDLYG [PTPN11_Y62_G60A] | 0.739 | 0.7 | 1.25 | 14.1 | 12.4 | 0.762 | 2.14 | 1.02 | 11.9 | 3.94 | 15.3 | 0.722 | 4.14 | 4.18 | 1.68 | 2.62
QNTGFYFDLFG [PTPN11_Y62_D61Y_YF] | 0.657 | 0.663 | 1.19 | 2.42 | 1.6 | 1.12 | 2.66 | 2.16 | 1.25 | 0.742 | 3.04 | 1.36 | 0.668 | 0.681 | 2.75 | 1.89
QNVADYMRYLM [RPL5_Y207] | 1.02 | 0.628 | 1.12 | 0.893 | 1.98 | 0.736 | 0.994 | 1.96 | 1.16 | 0.736 | 1.07 | 0.682 | 0.723 | 0.684 | 0.523 | 1.49
QPGTDYKIFLF [FN1_Y1970_YF] | 0.548 | 0.4 | 0.609 | 1.21 | 1.05 | 0.899 | 1.72 | 2.44 | 0.848 | 0.924 | 1.17 | 1.4 | 0.591 | 0.674 | 0.673 | 2.09
QQLVAYFSKHT [SRC_Y232_A237T_YF] | 1.08 | 0.808 | 1.01 | 0.942 | 0.676 | 0.595 | 1.75 | 1.09 | 0.724 | 0.699 | 0.562 | 0.646 | 0.629 | 0.513 | 0.382 | 0.898

Sequence | SH2 binding enrichment [1] | SH2 binding enrichment [2] | SH2 binding enrichment [3] | phosphorylation enrichment [4] | phosphorylation enrichment [5] | phosphorylation enrichment [6] | phosphorylation enrichment [7] | phosphorylation enrichment [8] | phosphorylation enrichment [9] | phosphorylation enrichment [10] | phosphorylation enrichment [11] | phosphorylation enrichment [12] | phosphorylation enrichment [13] | phosphorylation enrichment [14] | phosphorylation enrichment [15] | phosphorylation enrichment [16]
QRDSSYYWEIE [RAF1_Y340] | 0.797 | 10.6 | 0.762 | 3.03 | 2.77 | 0.536 | 1.13 | 1.09 | 1.14 | 0.981 | 3.91 | 0.744 | 2.12 | 1.95 | 3.5 | 1.3
QRMGTYGVRAA [ICAM2_Y260] | 0.881 | 0.724 | 1 | 0.702 | 0.685 | 0.852 | 0.983 | 1.14 | 0.657 | 3.44 | 0.754 | 0.637 | 2.06 | 1.58 | 0.618 | 1.26
QRRYVYYYSYL [PTEN_Y176] | 3.88 | 1 | 1.07 | 4.17 | 1.85 | 0.987 | 5.95 | 1.32 | 1.83 | 3.63 | 6.01 | 1.09 | 3.65 | 4.21 | 9.64 | 1.88
QSAGQYSSQGL [TNNI3K_Y788] | 0.924 | 0.369 | 0.944 | 0.542 | 0.95 | 0.622 | 0.636 | 1.15 | 0.414 | 0.855 | 0.387 | 0.777 | 0.459 | 0.418 | 0.584 | 0.703
QSLEPYTKQQL [STAT3_Y640_V637L] | 0.558 | 0.388 | 0.679 | 0.603 | 0.497 | 0.424 | 0.48 | 0.745 | 0.371 | 0.459 | 0.452 | 0.498 | 0.353 | 0.309 | 0.304 | 0.537
QSSALYEDRFL [ASS1_Y83_YF] | 0.471 | 0.65 | 0.835 | 1.01 | 4.13 | 10.1 | 1.23 | 1.53 | 1.86 | 6.48 | 0.781 | 1.08 | 1.48 | 2.02 | 1.24 | 1.19
QTLEAYIRCNK [SPAST_Y604_W607C] | 0.626 | 0.474 | 0.76 | 1.1 | 0.906 | 0.452 | 1.44 | 1.36 | 0.738 | 0.951 | 0.559 | 0.887 | 0.438 | 0.372 | 0.624 | 1.12
QTWKTYVRQQQ [SFI1_Y164] | 0.96 | 0.756 | 0.95 | 0.738 | 0.524 | 0.446 | 0.766 | 1.02 | 0.685 | 0.402 | 0.411 | 0.673 | 0.526 | 0.37 | 0.456 | 0.914
RAFSWYQHQRA [NDST1_Y714_YF] | 1.23 | 0.934 | 1.23 | 1 | 0.74 | 0.794 | 1.25 | 1.72 | 0.855 | 0.611 | 0.763 | 1.09 | 0.769 | 0.489 | 0.424 | 1.54
RAVLLYEFVGK [NATD1_Y45_YF] | 1.5 | 0.972 | 1.57 | 2.29 | 23.8 | 14.9 | 1.56 | 3.12 | 27.1 | 8.33 | 2.12 | 1.54 | 5.5 | 5.67 | 12.7 | 2.71
RCFVFYFSFLL [PTEN_Y177_R173C_YF] | 1.78 | 1.27 | 1.97 | 0.613 | 0.353 | 0.432 | 0.821 | 0.626 | 0.434 | 0.426 | 0.506 | 0.732 | 0.355 | 0.591 | 0.38 | 0.59
RDLTHYLMKIL [ACTG1_Y188_D187H] | 1.54 | 1.6 | 1.64 | 0.85 | 1.05 | 0.64 | 0.477 | 1.12 | 0.804 | 1.06 | 0.665 | 0.692 | 0.756 | 0.463 | 0.583 | 1.27
RDMMDYMPQGV [CYP21A2_Y259_L261P] | 0.8 | 0.391 | 0.909 | 0.823 | 0.921 | 0.937 | 0.986 | 1.36 | 1.28 | 0.578 | 0.799 | 0.912 | 0.636 | 0.596 | 0.681 | 1.41
REEKNYKLKET [BCLAF1_Y459] | 0.956 | 0.627 | 1.16 | 0.714 | 0.691 | 1.3 | 1.5 | 1.21 | 0.799 | 0.861 | 0.733 | 1.16 | 0.843 | 1.28 | 1.14 | 0.996
REGDKYVSHGA [ASS1_Y113_A111D] | 1.01 | 0.407 | 0.623 | 0.58 | 0.794 | 0.486 | 0.83 | 1.03 | 0.622 | 0.61 | 0.731 | 0.873 | 0.505 | 0.643 | 0.744 | 0.938
REIIAYQPFGK [PRKCG_Y529_P524R_YF] | 0.951 | 1.01 | 1.19 | 0.398 | 0.51 | 0.291 | 0.584 | 0.635 | 0.385 | 0.438 | 0.305 | 0.705 | 0.499 | 0.466 | 0.305 | 0.524

Reference: the supplement of paper PMC10065799, “High-throughput profiling of sequence recognition by tyrosine kinases and SH2 domains using bacterial peptide display” (eLife, 2023)
